Measurements from article PMC10527347 (Journal of molecular biology, 2023).
Substitutions are numbered along the chain they refer to. Numbers in names are those of the source. Blank lines part the entries; values can stand above or below the binder they belong to.

Legend:
[1] = target: T1, Hsp90Ec N347C (E. coli, UniProt P0A6Z3 1-624, N347C); assay: cross-linking
[2] = target: T2, Hsp90Ec N350C (E. coli, UniProt P0A6Z3 1-624, N350C); assay: cross-linking
[3] = target: T3, Hsp90Ec K199C (E. coli, UniProt P0A6Z3 1-624, K199C); assay: cross-linking
[4] = target: T1, Hsp90Ec N347C; assay: cross-linking; remark: listed apart in the source
[5] = target: T2, Hsp90Ec N350C; assay: pull-down
[6] = target: Hsp90Ec K99C (E. coli, UniProt P0A6Z3 1-624, K99C); assay: pull-down
[7] = target: Hsp90Ec K560C (E. coli, UniProt P0A6Z3 1-624, K560C); assay: pull-down
[8] = target: Hsp90Ec K103C (E. coli, UniProt P0A6Z3 1-624, K103C); assay: pull-down
[9] = target: Hsp90Ec K354C (E. coli, UniProt P0A6Z3 1-624, K354C); assay: pull-down
[10] = target: T3, Hsp90Ec K199C; assay: pull-down
[11] = target: Hsp90Ec Q358C (E. coli, UniProt P0A6Z3 1-624, Q358C); assay: pull-down
[12] = target: Hsp90Ec L493C (E. coli, UniProt P0A6Z3 1-624, L493C); assay: pull-down
[13] = target: Hsp90Ec K502C (E. coli, UniProt P0A6Z3 1-624, K502C); assay: pull-down
[14] = target: Hsp90Ec K45C (E. coli, UniProt P0A6Z3 1-624, K45C); assay: pull-down
[15] = target: T1, Hsp90Ec N347C; assay: pull-down
[16] = target: Hsp90Ec K492C (E. coli, UniProt P0A6Z3 1-624, K492C); assay: pull-down
[17] = target: Hsp90Ec K71C (E. coli, UniProt P0A6Z3 1-624, K71C); assay: pull-down
[18] = target: Hsp90Ec wild-type (E. coli, UniProt P0A6Z3 1-624); assay: BLI

binding result [1]: binds | binding result [2]: binds
B1: CbpA J-domain A44C (domain or fragment, E. coli, UniProt P36659 1-78, looked up)
chain: MELKDYYAIMGVKPTDDLKTIKTAYRRLARKYHPDVSKEPDAECRFKEVAEAWEVLSDEQRRAEYDQMWQHRNDPQFN

binding result [3]: binds | binding result [4]: binds
B2: wild type CbpA J-domain fragment (residues 1-78) (domain or fragment, E. coli, UniProt P36659 1-78, looked up)
chain: B1 chain with C44A

binding result [5]: binds | binding result [6]: binds | binding result [7]: binds | binding result [8]: binds | binding result [9]: binds | binding result [10]: binds | binding result [11]: binds | binding result [12]: binds | binding result [13]: binds | binding result [14]: binds | binding result [15]: binds | binding result [16]: binds | binding result [17]: binds | Kd [18]: 11 ± 0.9 µM
B3: biotin-labeled CbpA (natural protein, E. coli, UniProt P36659 1-306, looked up)
chain: MELKDYYAIMGVKPTDDLKTIKTAYRRLARKYHPDVSKEPDAEARFKEVAEAWEVLSDEQRRAEYDQMWQHRNDPQFNRQFHHGDGQSFNAEDFDDIFSSIFGQHARQSRQRPATRGHDIEIEVAVFLEETLTEHKRTISYNLPVYNAFGMIEQEIPKTLNVKIPAGVGNGQRIRLKGQGTPGENGGPNGDLWLVIHIAPHPLFDIVGQDLEIVVPVSPWEAALGAKVTVPTLKESILLTIPPGSQAGQRLRVKGKGLVSKKQTGDLYAVLKIVMPPKPDENTAALWQQLADAQSSFDPRKDWGKA
modifications: biotin label (site not stated)
